Source: patent US20220072087A1, “SPECIFIC COMBINATION THERAPY FOR TREATMENT OF PANCREATIC CANCER” (BioLineRx Ltd., priority 2019, published 2022)
Bridge positions count the residues as written; N and C are the ends. Square brackets hold non-standard residues; d marks the D form. * marks the point of attachment. 2Nal = N[C@@H](Cc1ccc2ccccc2c1)C(=O)O; Benzoyl(4-F) = O=C(c1ccc(F)cc1)*; Cit = NC(=O)NCCC[C@H](N)C(=O)O

Legend:
[1] = solubility of BL-8040 powder; assay type: physicochemical
[2] = target: CXCR4 (Homo sapiens, UniProt P61073); conditions: read-out: IC50 (binds to CXCR4 with high affinity); cited from earlier work
Sequence of CXCR4 (P61073 whole entry, species assumed): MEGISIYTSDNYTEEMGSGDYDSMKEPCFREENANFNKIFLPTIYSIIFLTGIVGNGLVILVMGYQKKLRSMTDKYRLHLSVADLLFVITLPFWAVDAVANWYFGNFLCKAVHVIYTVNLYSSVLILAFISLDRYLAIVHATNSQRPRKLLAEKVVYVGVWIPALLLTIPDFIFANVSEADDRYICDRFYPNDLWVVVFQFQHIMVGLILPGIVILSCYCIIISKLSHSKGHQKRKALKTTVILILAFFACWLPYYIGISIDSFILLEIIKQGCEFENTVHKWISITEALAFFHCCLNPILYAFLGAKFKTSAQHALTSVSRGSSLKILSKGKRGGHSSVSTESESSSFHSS

[3] = tested on: normal human hematopoietic cells; conditions: cited from earlier work
[4] = tested on: human keratinocytes; conditions: cited from earlier work

In the case of “BL-8040 ({Benzoyl(4-F)}-RR[2Nal]CY[Cit]K[dK]PYR[Cit]CR-NH2; disulfide 4-13 (inferred))”, the solubility ([1]; in 0.45% Sodium Chloride (half normal saline)) is given as “freely soluble”, the solubility ([1]; in water) is given as “freely soluble” and the IC50 [2] is given as 0.54 to 4.5 nM. The effect on viability [3] was “did not affect the viability” and the effect on viability [4] was “did not affect the viability”.
